{
  "source": "paper PMC4574524",
  "molecular_target": "PFD1235w DBLβ3_D4, wild type (P. falciparum 3D7)",
  "assay": "SPR",
  "data": [
    {"substance": "ICAM-1_D1-D2 (domain or fragment)", "values": [
      {"measurement": "Kd", "value": 7.9, "unit": "nM"},
      {"measurement": "koff", "value": 0.00167, "unit": "s⁻¹"}
    ]}
  ]
}
